# Laboratory results as given in publication PMC7660924, “NIGT1 family proteins exhibit dual mode DNA recognition to regulate nutrient response-associated genes in Arabidopsis” (PLoS Genetics, 2020).
# Residue numbers refer to the chain shown, from its start.
# T1: NIGT1.1 L25A/L39A L25A;L39A (Arabidopsis thaliana (Col-0?)) (UniProt Q9FPE8)
# T1 sequence: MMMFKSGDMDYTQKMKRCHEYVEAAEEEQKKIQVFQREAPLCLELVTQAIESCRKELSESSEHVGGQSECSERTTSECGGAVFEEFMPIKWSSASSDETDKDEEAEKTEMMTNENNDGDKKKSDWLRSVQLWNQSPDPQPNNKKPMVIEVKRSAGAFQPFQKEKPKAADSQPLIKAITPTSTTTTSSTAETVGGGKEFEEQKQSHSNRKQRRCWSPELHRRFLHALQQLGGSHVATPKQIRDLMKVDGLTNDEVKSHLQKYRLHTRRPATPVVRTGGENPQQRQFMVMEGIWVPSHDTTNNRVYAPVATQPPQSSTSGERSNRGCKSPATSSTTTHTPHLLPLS
# T2: NIGT1.1 WT (Arabidopsis thaliana (Col-0?)) (UniProt Q9FPE8)
# T2 sequence: T1 sequence with A25L, A39L
# B1: Trx-6×His-NIGT1.1^WT-6×His recombinant protein (natural protein, Arabidopsis thaliana, UniProt Q9FPE8 1-344, looked up)
# chain: T1 sequence with A25L, A39L
# notes: NIGT1.1, Arabidopsis thaliana, At1g25550; cDNA encoding NIGT1.1^WT cloned into pET32-b(+) by NcoI and HindIII; expected mass of the recombinant protein 57.4 kDa; Plasmid pET32-NIGT1.1; also called recombinant NIGT1.1^WT; Trx-6×His-NIGT1.1-6×His; not shown: Trx, N-terminal, kept; 6×His, N-terminal, kept; 6×His, C-terminal, kept
# Columns and labels:
# [1] = molecular target: T1, NIGT1.1 L25A/L39A L25A;L39A (Arabidopsis thaliana (Col-0?)); assay: EMSA; settings: EMSA: 15 ul reaction, 40 fmol biotin-labeled probe, 7.5-60 ng protein, 4% polyacrylamide gel; buffer, salt, pH and temperature not given (as in ref 24)
# [2] = molecular target: T2, NIGT1.1 WT (Arabidopsis thaliana (Col-0?)); assay: EMSA; settings: EMSA: 15 ul reaction, 40 fmol biotin-labeled probe, 7.5-60 ng protein, 4% polyacrylamide gel; buffer, salt, pH and temperature not given (as in ref 24)
# [3] = molecular target: the molecule itself; assay: SEC-MALS; Shodex PROTEIN LW-803 column; 20 mM Tris-HCl (pH 7.5), 500 mM NaCl, 10% glycerol, room temperature; 1 mg/ml, 70 μl loaded; 0.8 ml/min
Molecule,binding [1],binding [2],stoichiometry N [3]
AATATTTAAATCGATAGTTAACCGTTGAGAATCTCCAAAGAATGCTTTTTTCATTGTCAACACTGGCTAGGAACCCTATATAAGCCATCGTGTGATTAATATTCAGACATCGCATGGTCATAGCTGTTTCCTGTGT (double strand) [P3-2],binds more weakly,no binding,–
AATGAATTAAGACGCGAATCGGGAAAATTCAATAAATTGTCCATTGGGGGGTGCTTTAAAGAAAGATTGAAAGATGCCGAGGTTTATACCCTTTTCCTATCAAGAATATTCCATGGAATCCAACTACTTTTGACCCATTTGCGTATTTGTTAAATCTTTTCAGAAAATCAAAAGTGGGTAAATTGTCAAACTAGTTGTAGTATTGAACTACTATTTATTGATCATGCCATCATCCATGGTCATAGCTGTTTCCTGTGT (double strand) [P1 (SPX1 promoter)],binds more weakly,binds,–
ACACAGGAAACAGCTATGACCATGAGCTCTTTTATTTTCTGGGAAACTTAAGTGAGAATGATGAATGAAGAAGAAAGAGAGGGGGAAGAGGTTTAGAGATATAAAAGGGATTAAAAAGAATATTCTTAAGGTTTCTAATTAGAATATCCTTTTTTCTCTGTCTTTCTTTCGGGAGAATATCTTCCTTTTATTCCTTTCTTATTTATTACTTTTTCGTGGTTATCTGTGGGTGAGATTATAACACATGCCTATGTCAGTTCATAAATATCAATCACAACTC (double strand) [P2 (SPX1 promoter)],binds more weakly,binds,–
ACACAGGAAACAGCTATGACCATGCAACGGTTAACTATCGATTTAAATATTAATTTTCGAGGAATCCATTTTCGCCGCAAGCATCTTCCTAGTCTCTCGCTTATCACCAAAGGTTGCCGATATCCTTCCAAATGACCGCTCTACCCTTCCCTCATCTTGC (double strand) [P3-1],binds more weakly,no binding,–
ACACAGGAAACAGCTATGACCATGCGATGTCTGAATATTAATCACACGATGGCTTATATAGGGTTCCTAGCCAGTGTTGACAATGAAAAAAGCATTCTTTGGAGATTCTCAACGGTTAACTATCGATTTAAATATTAATTTTCGAGGAATCCATTTTCGCCGCAAGCATCTTCCTAGTCTCTCGCTTATCACCAAAGGTTGCCGATATCCTTCCAAATGACCGCTCTACCCTTCCCTCATCTTGC (double strand) [P3 (NRT2.1 promoter)],binds more weakly,binds,–
B1,–,–,2
